How the values were obtained:
[1] = system: O=c1ccn([C@@H]2O[C@H](COP(=O)(O)O)[C@@H](O)[C@H]2O)c(=O)[nH]1; assay: purified protein, by the assay type; conditions: other: substrate Km of the recombinant UMP/CMP kinase from U. maydis, Lineweaver-Burk plot (FIG. 4A/4B)
[2] = system: Nc1ncnc2c1ncn2[C@@H]1O[C@H](COP(=O)(O)OP(=O)(O)OP(=O)(O)O)[C@@H](O)[C@H]1O; assay: purified protein, by the assay type; conditions: other: substrate Km of the recombinant UMP/CMP kinase from U. maydis, Lineweaver-Burk plot (FIG. 4A/4B)
Protocol: The ADP produced in the reaction is measured by the coupled reaction with pyruvate kinase and lactate dehydrogenase. Here the pyruvate produced in the reaction of the pyruvate kinase is converted to lactate by the lactate dehydrogenase with the use of NADH.
The activity and/or decrease or increase in activity of the inventive polypeptide can therefore occur by coupling this reaction with the enzymatic conversion of the ADP by the pyruvate kinase and the subsequent enzymatic conversion by the lactate dehydrogenase of the pyruvate produced. This makes use of the fact that the pyruvate produced in the reaction of the pyruvate kinase is converted to lactate by the lactate dehydrogenase (LDH) with the consumption of NADH.
The co-substrate NADH consumed in the reaction of the LDH has an extinction maximum at 340 nm.

UMP/CMP kinase from Ustilago maydis (Mycosarcoma maydis)
Km [1]: 120 µM
Km [2]: 60 µM
